Laboratory results as given in patent publication US20090081183A1, “HIV Transcription Repressor Complex and Compositions and Methods Based Thereon” (priority 1997, published 2009).
Like-named read-outs stand apart in the source and are kept apart here.

T1: LSF (Homo sapiens, UniProt Q12800, A491Q)
T1 construct: host or cells: in vitro transcription/translation in rabbit reticulocyte lysate (T7 RNA polymerase)
T1 sequence (Q12800 1-502 A491Q): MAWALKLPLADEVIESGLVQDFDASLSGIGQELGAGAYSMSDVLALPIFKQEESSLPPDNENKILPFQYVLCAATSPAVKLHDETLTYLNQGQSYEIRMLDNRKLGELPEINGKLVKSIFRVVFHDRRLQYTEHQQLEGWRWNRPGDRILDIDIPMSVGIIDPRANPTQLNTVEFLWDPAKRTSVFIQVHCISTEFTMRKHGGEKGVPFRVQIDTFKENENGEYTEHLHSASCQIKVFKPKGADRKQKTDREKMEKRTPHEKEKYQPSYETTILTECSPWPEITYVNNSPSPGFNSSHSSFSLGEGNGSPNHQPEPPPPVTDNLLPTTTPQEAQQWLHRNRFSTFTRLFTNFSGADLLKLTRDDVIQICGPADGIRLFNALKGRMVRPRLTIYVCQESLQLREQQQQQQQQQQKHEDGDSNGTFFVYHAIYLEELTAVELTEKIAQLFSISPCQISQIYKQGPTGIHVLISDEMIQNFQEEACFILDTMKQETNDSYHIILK

B1: YZnFs: GST fused to all four YY1 zinc fingers without the YY1 amino-terminal region (protein)
chain: TIACPHKGCTKMFRDNSAMRKHLHTHGPRVHVCAECGKAFVESSKLKRHQLVHTGEKPFQCTFEGCGKRFSLDFNLRTHVRIHTGDRPYVCPFDGCNKKFAQSTNLKSHILTHAKAKNNQ
modifications: left off: a dimerising Fc or GST
notes: GST fused to all four YY1 zinc fingers without the YY1 amino-terminal region
B2: LSF: lymphoid transcription factor (LBF-1, CP-2) that represses LTR-driven transcription (SEQ ID NO: 5) (protein, listed as Homo sapiens)
chain: T1 sequence (Q12800 1-502 A491Q)

Key:
LSF = biological target: T1, LSF; test: In vitro protein interaction mapping: GST-YY1/GFI-1 chimeras retaining 35S-labeled LSF; assay type: binding; conditions: glutathione-agarose capture, 35S-methionine labeled LSF
Source text: In vitro protein interaction mapping: Glutathione-S-transferase (GST)-YY1/GFI-1 chimeras (17) and G3ST-LSF deletion (54, 55) constructs were expressed and harvested in E. coli as previously described. Proteins were visualized by Coomassie brilliant blue staining and protein content was normalized by densitometric analysis. LSF was transcribed and translated in vitro by T7 RNA polymerase in rabbit reticulocyte (Promega, Madison, Wis.) in the presence of ^35S-methionine as per manufacturer's instruction (54). Following capture of GST-YY1/GFI-1 chimera proteins on glutathione-agarose beads, equal volumes of beads were incubated with ^35S-methionine labeled LSF in incubation buffer (17) for 1 hour at 4° C. The beads were washed in incubation buffer/100 mM KCl and resuspended in 20 μl 2×SDS loading buffer. Retained LSF was separated in a 10% SDS gel, dried, and visualized by autoradiography. Similarly, YY1 was transcribed and translated in vitro, incubated with captured GST-LSF constructs, and retained YY1 was by autoradiography following electrophoresis.
YY1 DNA-binding activity and many YY1-protein interactions map to the carboxyl-terminal zinc fingers of the molecule. Therefore, YY1 interaction domains were mapped using chimeric YY1 recombinants (FIG. 2c). […]

HIV-1 LTR = test: Tat-activated integrated LTR-CAT reporter assay in HeLa-CD4-LTR cells; assay type: cell-based
Procedure: Cell lines transfections and assays. Transfections of HeLa cells were performed as previously described (49). HeLa-CD4-LTR (9) cells were grown in DMEM supplemented with 10% FCS and transfected with 20 μg plasmid DNA (prepared using EndoFree plasmid kit, Qiagen, Valencia, Calif.) by calcium phosphate coprecipitation as per manufacturer's instructions (ProFection system, Promega, Madison, Wis.). After 30 minutes at room temperature, the solution was added to the cells (2.5-4×10^5 cells/plate). Twelve hours after transfection, the cells were washed with PBS and fed fresh medium. Forty-eight hours later the cells were harvested, cellular extracts prepared, and CAT assays performed as previously described (49). To control for the effect of transcription factor overexpression on general cellular promoters a reporter construct driven by the beta-actin promoter, pH[…]-actin-luciferase (66), was used in cotransfection and CAT expression normalized for luciferase activity. Other plasmids used have been previously described (2, 49). […] Up to 30 μl of cellular extract (normalized for protein concentration) in a final volume of 130 μl was used for luciferase reactions.
The LTR reporter carried by HeLa-CD4-LTR cell line exists within the native chromatin structure of the genome. […]

[1] = test system: RCS oligonucleotide (−10 to +27 of HIV-1 LTR); assay type: binding

Molecule	Binding of LSF in vitro by GST-fused construct (LSF)	Tat-activated CAT expression from integrated LTR reporter (HIV-1 LTR; 200 ng pAR-Tat, 2.5 μg CMV expression plasmid, normalized to β-actin-luciferase)	Effect on YY1-mediated repression of integrated LTR-CAT expression (HIV-1 LTR; with YY1 transfection, trichostatin-A added to culture medium (data not shown))	Complex formation with the RCS in EMSA ([1]; 10 ng protein alone)	Complex formation with the RCS in EMSA ([1]; 20 ng protein alone)
B1	binds LSF with equal avidity to intact GST-YY1	–	–	–	–
B2	–	had no effect on expression of CAT	augmented repression mediated by YY1	formed a diffuse faintly visible EMSA band	induced a very prominent protein-DNA complex
